Assay results published in publication PMC4815982.

Target: AROS (UniProt Q86WX3)
Assay: Flag-SIRT1 IP, HA-AROS immunoblot
Settings: reference: wild type, Adriamycin-treated; sites S682

SIRT1 (from UniProt Q96EB6) S682A, Adriamycin-treated
binding against the reference: stronger
